# Measured values taken from publication doi:10.1101/589580.
# Target: full-length ZO1 with C-terminal mEGFP (UniProt Q07157)
# Assay: client partitioning into phase-separated droplets
# full-length ZO1 with C-terminal mEGFP, sequence (Q07157 whole entry): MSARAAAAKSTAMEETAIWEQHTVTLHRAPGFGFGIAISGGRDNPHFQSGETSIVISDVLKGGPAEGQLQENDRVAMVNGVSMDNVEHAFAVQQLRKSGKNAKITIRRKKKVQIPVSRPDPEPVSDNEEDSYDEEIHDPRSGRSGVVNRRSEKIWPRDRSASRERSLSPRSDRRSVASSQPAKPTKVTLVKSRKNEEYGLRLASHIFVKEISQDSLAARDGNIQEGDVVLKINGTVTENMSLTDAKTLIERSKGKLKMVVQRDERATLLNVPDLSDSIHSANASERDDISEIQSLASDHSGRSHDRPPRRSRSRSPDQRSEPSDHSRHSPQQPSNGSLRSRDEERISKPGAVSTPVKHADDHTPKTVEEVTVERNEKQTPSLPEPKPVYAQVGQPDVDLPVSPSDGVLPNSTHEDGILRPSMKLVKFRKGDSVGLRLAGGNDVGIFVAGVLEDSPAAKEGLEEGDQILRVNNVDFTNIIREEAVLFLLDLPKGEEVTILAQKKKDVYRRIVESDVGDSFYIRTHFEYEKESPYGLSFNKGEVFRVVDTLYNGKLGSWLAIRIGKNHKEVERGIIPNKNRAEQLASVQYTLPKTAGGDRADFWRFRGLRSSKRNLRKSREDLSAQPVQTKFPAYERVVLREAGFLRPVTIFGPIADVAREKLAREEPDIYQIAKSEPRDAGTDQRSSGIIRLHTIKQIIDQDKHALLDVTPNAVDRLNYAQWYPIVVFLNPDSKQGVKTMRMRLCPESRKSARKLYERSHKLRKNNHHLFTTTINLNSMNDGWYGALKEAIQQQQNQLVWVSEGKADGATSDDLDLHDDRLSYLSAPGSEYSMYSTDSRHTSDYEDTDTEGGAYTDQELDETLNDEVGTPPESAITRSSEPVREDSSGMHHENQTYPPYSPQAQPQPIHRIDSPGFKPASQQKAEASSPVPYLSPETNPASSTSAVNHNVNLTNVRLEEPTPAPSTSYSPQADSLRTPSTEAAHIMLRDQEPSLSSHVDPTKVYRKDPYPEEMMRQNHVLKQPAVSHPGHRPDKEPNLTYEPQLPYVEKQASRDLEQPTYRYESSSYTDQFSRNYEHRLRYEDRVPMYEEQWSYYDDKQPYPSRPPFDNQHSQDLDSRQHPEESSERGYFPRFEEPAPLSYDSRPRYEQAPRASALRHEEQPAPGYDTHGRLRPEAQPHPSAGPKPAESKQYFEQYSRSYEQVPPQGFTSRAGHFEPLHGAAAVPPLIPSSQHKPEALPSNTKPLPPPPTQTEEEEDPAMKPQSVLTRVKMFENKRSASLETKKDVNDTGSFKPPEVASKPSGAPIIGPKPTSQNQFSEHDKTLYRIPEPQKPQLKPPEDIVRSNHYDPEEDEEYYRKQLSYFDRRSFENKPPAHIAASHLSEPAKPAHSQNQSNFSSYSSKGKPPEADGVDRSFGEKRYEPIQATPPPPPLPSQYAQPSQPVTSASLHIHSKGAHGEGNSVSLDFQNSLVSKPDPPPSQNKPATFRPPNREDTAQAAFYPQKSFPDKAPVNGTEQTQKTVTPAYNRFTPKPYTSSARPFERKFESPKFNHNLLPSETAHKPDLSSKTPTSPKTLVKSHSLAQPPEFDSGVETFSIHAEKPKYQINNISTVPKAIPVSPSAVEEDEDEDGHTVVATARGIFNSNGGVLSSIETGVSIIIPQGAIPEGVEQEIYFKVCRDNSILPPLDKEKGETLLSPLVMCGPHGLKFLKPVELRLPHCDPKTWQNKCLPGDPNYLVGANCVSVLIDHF
row,partitioning (client fluorescence inside/outside ZO1 droplets),Substance
1,22 fold,monomeric actin (from UniProt P60709 1-375) (natural protein)
2,9 fold,C-terminal domain of nectin-1 (from UniProt Q15223 31-517) (domain or fragment)
3,21 fold,C-terminal domain of occludin (from UniProt Q16625 1-522) (domain or fragment)
